Results published in paper PMC5727935, “The distinctive cell division interactome of Neisseria gonorrhoeae” (BMC Microbiology, 2017).

Assays:
[1] = molecular target: N. gonorrhoeae FtsK, bacterial two-hybrid fusion (Neisseria gonorrhoeae CH811); assay: two-hybrid; bacterial two-hybrid (Di Lallo): fusions to P22 and 434 repressor ends in E. coli R721, 34 °C; residual β-galactosidase activity against R721 without plasmids (2504 ± 34 Miller units); less than 50% counts as a positive interaction
[2] = molecular target: N. gonorrhoeae FtsW, bacterial two-hybrid fusion (Neisseria gonorrhoeae CH811) (UniProt B4RQC6); assay: as above
[3] = molecular target: N. gonorrhoeae FtsN, bacterial two-hybrid fusion (Neisseria gonorrhoeae CH811); assay: as above
[4] = molecular target: N. gonorrhoeae FtsZ, bacterial two-hybrid fusion (Neisseria gonorrhoeae) (UniProt P72079); assay: as above
[5] = molecular target: T1, N. gonorrhoeae FtsW, bacterial two-hybrid fusion (Neisseria gonorrhoeae CH811, UniProt B4RQC6 1-462); assay: as above; details: partners not purified
T1 construct: FtsW of Neisseria gonorrhoeae CH811, amplified from genomic DNA with primers P9/P10 (start codon to stop codon); Cloned in both vectors (pcIp22 and pcI434); each fusion carries one of the two repressor ends; also called FtsWNg; pcIp22-W; source: bacterial two-hybrid fusion, expressed in E. coli R721
T1 sequence (looked up): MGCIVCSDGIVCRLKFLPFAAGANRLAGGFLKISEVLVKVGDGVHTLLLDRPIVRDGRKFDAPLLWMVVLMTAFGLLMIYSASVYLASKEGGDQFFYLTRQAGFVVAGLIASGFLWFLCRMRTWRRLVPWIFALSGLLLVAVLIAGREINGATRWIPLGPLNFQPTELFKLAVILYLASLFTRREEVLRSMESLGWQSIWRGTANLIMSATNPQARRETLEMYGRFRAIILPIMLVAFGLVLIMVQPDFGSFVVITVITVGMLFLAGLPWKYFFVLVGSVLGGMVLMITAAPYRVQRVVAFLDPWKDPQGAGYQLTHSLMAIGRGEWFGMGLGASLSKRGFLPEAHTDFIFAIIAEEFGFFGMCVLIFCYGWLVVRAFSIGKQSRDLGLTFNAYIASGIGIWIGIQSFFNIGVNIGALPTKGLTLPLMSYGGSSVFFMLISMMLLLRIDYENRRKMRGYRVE

[6] = molecular target: T2, N. gonorrhoeae FtsQ, bacterial two-hybrid fusion (Neisseria gonorrhoeae CH811, UniProt Q5F6M1 1-242); assay: as above; details: partners not purified
T2 construct: FtsQ of Neisseria gonorrhoeae CH811, amplified from genomic DNA with primers P5/P6 (start codon to stop codon); Cloned in both vectors (pcIp22 and pcI434); each fusion carries one of the two repressor ends; also called FtsQNg; pcIp22-Q; source: bacterial two-hybrid fusion, expressed in E. coli R721
T2 sequence (looked up): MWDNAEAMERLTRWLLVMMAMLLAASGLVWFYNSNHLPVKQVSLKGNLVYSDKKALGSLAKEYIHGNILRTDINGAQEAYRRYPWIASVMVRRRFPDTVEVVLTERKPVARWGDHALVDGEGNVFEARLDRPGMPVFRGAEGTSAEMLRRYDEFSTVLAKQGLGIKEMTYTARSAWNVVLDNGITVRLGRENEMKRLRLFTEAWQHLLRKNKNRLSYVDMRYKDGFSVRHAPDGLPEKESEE

[7] = molecular target: His-FtsNNg (ligand of the SPR) (Neisseria gonorrhoeae); assay: SPR; Bio-Rad XPR36, ProteOn HTE chip activated with NiSO4; His-FtsQNg or His-FtsNNg immobilised at 200 nM; two-fold dilutions of FtsANg in PBST (0.1% BSA, 0.05% Tween-20, pH 7.9), 30 μl/min, 120 s, then 300 s buffer; Langmuir 1:1 kinetic fit
[8] = molecular target: T3, FtsANg (analyte of the SPR with FtsQNg and FtsNNg) (Neisseria gonorrhoeae CH811, UniProt Q5F6M2 1-414); assay: as above; details: both partners purified
T3 construct: FtsA of Neisseria gonorrhoeae CH811; GST in PBST as the negative-control analyte hints at GST-FtsANg (surmise); source: E. coli C41 (DE3), purified
T3 sequence (looked up): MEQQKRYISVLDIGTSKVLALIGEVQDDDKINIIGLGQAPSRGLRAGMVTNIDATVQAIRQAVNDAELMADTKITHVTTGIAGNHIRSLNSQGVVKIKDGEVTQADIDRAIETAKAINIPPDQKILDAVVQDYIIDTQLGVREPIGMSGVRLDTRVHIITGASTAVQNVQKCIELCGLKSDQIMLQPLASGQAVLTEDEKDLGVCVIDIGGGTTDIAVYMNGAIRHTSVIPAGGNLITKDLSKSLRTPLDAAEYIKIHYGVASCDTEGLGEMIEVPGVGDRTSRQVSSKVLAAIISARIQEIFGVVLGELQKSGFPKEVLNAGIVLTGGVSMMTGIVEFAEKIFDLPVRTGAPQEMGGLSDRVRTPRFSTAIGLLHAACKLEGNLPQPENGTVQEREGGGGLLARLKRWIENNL

[9] = molecular target: the molecule itself; assay: 90° light scattering + negative-stain electron microscopy; FtsZNg about 6 μM in MES buffer (50 mM MES-NaOH, 50 mM KCl, 10 mM MgCl2, pH 7.5), 2 mM GTP, 30 °C; polymerisation
[10] = molecular target: His-FtsANg (Neisseria gonorrhoeae CH811) (UniProt Q5F6M2); assay: SPR; FtsANg immobilised on the HTE chip; polymerized FtsZNg (with GTP) at 6 and 12 μM injected for 120 s, 300 s dissociation; MES buffer with 0.1% BSA, 0.05% Tween-20, 1 mM ATP, pH 7.5; Langmuir 1:1 kinetic fit

With “N. gonorrhoeae FtsN, bacterial two-hybrid fusion (natural protein)” the residual β-galactosidase activity [1] was 31%.

In the case of “N. gonorrhoeae FtsI, bacterial two-hybrid fusion (natural protein)”, the residual β-galactosidase activity [2] is reported as 35%.

B1: N. gonorrhoeae FtsA, bacterial two-hybrid fusion (natural protein, Neisseria gonorrhoeae CH811, UniProt Q5F6M2 1-414, looked up)
chain: T3 sequence (looked up)
notes: FtsA of Neisseria gonorrhoeae CH811, amplified from genomic DNA with primers P1/P2 (start codon to stop codon); ends at Leu414 by the limits of the truncations; Cloned in both vectors (pcIp22 and pcI434); each fusion carries one of the two repressor ends; also called FtsANg; pcIp22-A; source: bacterial two-hybrid fusion, expressed in E. coli R721
B1 showed a residual β-galactosidase activity [3] of 24%, a residual β-galactosidase activity [4] of 40% and a residual β-galactosidase activity [1] of 30%. The “residual β-galactosidase activity” value [5] was 45% and the “residual β-galactosidase activity” value [6] was 48%.

B2: FtsANg (analyte of the SPR with FtsQNg and FtsNNg) (natural protein)
chain: T3 sequence (looked up)
With B2 the Kd [7] was 0.0533 µM, the koff [7] was 0.00616 s⁻¹ and the kon [7] was 115000 M⁻¹ s⁻¹.

B3: His-FtsQNg (natural protein, Neisseria gonorrhoeae CH811, UniProt Q5F6M1 1-242, looked up)
chain: T2 sequence (looked up)
notes: FtsQ of Neisseria gonorrhoeae CH811, full-length ftsQ (primers P17/P18) cloned BglII/EcoRI into pET30a; also called pETQ
For B3, the Kd [8] was 0.0151 µM, the koff [8] was 0.00409 s⁻¹ and the kon [8] was 272000 M⁻¹ s⁻¹.

B4: FtsZNg, His tag cleaved with thrombin (natural protein, Neisseria gonorrhoeae CH811, UniProt P72079 1-392, looked up)
chain: MEFVYDVAESAVSPAVIKVIGLGGGGCNAINNMVANNVRSVEFISANTDAQSLAKNHAAKRIQLGTNLTRGLGAGANPDIGRAAAQEDREAIEEAIRGANMLFITTGMGGGTGTGSAPVVAEIAKSLGILTVAVVTRPFSYEGKRVHVAQAGLEQLKEHVDSLIIIPNDKLMTALGEDVTMREAFRAADNVLRDAVAGISEVVTCPSEIINLDFADVKTVMSNRGIAMMGSGYAQGIDRARMATDQAISSPLLDDVTLDGARGVLVNITTAPGCLKMSELSEVMKIVNQSAHPDLECKFGAAEDETMSEDAIRITIIATGLKEKGAVDPTPEREVEAVAPSKQEQSHIVEGMIRTNRGIRTMNLTAADFDNQSVLDDFEIPAILRRQHNSDK
notes: FtsZ of Neisseria gonorrhoeae CH811, full-length ftsZ (primers P19/P20) cloned BglII/EcoRI into pET30a; also called polymerized FtsZNg; not shown: His6, N-terminal, cleaved
With B4 the binding result [9] was “binds”, the Kd [10] was 14.9 µM and the koff [10] was 0.00531 s⁻¹. For the same molecule, the kon [10] was 356 M⁻¹ s⁻¹.

B5: N. gonorrhoeae FtsZ, bacterial two-hybrid fusion (natural protein, Neisseria gonorrhoeae, UniProt P72079 1-392, looked up)
chain: B4 chain
notes: FtsZ of Neisseria gonorrhoeae; Cloned in both vectors (pcIp22 and pcI434); each fusion carries one of the two repressor ends; also called FtsZNg; pcIp22-Z; source: bacterial two-hybrid fusion, expressed in E. coli R721
In the case of B5, the residual β-galactosidase activity [1] is reported as 41% and the “residual β-galactosidase activity” value [5] is reported as 39%.
